According to patent publication EP4285935A1 (Emergence Therapeutics AG, dated 2023):

What was measured:
[1] = target: T1, N-terminal Flag-tagged human Nectin-4 on transfected MDA-MB231 cells (human, UniProt Q96NY8 32-510); test: flow cytometry on MDA-MB231 cells transfected with N-terminal Flag-tagged Nectin-4, dose range 0.3 ng/mL - 5 µg/mL (FIG. 1)
T1 construct: whole, on cells; also called PVRL4; Flag-tagged Nectin-4; not shown: N-terminal Flag tag from vector p3XFLR4.C1
T1 sequence (looked up): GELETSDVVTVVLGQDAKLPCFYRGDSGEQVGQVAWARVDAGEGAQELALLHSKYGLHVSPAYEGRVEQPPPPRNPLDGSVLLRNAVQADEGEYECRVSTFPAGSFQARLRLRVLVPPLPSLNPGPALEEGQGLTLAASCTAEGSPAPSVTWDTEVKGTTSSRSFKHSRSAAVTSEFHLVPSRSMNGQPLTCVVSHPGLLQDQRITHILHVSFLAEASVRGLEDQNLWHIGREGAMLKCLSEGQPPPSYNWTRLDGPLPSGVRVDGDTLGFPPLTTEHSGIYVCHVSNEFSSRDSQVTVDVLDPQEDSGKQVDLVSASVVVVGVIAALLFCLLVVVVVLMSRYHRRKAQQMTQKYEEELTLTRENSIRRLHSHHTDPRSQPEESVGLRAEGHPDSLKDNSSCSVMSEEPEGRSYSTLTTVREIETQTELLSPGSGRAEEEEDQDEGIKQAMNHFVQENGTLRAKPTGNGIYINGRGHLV

human Nectin-4 on cells = target: T2, human Nectin-4 on cells (human, UniProt Q96NY8 32-510); test: flow cytometry on normal differentiated human keratinocytes (NHEK), dose range 8 pM - 33 nM (FIG. 15); Ch-5A12.2 is the reference of the comparison
T2 construct: whole, on cells; also called CHO cells transfected with human Nectin-4 cDNA; Nectin-4 expressed by normal differentiated human keratinocytes (NHEK)
T2 sequence (looked up): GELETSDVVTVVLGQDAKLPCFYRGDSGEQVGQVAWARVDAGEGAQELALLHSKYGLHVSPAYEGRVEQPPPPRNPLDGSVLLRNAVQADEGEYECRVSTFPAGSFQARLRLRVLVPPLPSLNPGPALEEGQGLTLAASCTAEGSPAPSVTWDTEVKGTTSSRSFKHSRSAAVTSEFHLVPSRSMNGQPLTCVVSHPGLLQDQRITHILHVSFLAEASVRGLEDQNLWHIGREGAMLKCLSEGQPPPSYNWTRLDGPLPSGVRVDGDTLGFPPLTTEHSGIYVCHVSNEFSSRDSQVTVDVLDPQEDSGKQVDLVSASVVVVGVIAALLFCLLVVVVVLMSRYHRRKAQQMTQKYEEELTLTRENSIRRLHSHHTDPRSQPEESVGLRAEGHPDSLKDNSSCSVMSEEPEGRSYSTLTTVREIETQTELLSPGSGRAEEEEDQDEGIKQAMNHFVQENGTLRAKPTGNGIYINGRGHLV

B1: Ch-5A12.2 (antibody, V domains shown)
VH: QIQLQQSGAELVKPGASVTLSCKTSGFTFNSMYISWLKQKPGQSLEWIAWIYAGTGGTRFNQKFTGKVQLTVDTSSSTAYMQFSSLTTDDSAIYYCAIRSGFVPMDYWGQGTSVTVSS
VL: SIVMTQTPKFLLVSAGDRVTITCKASQSVSNDVAWYQQKPGQSPKLLIYYASNRYTGVPDRFTGSGYGTDFTFTISTVQAEDLAVYFCQQDYSSPWTFGGGTKLEIK
notes: also called 5A12.2 mAb; Ch-5A12.2 mAb
binding result [1]: binds | binding result (human Nectin-4 on cells): binds
